From patent EP4711384A1 (WIO Bioscience Co., Ltd., dated 2026) come the findings set out here.

Sequences and labels used below:
T1: human IL-18R1 ECD-His (human) (UniProt Q13478)
T1 sequence: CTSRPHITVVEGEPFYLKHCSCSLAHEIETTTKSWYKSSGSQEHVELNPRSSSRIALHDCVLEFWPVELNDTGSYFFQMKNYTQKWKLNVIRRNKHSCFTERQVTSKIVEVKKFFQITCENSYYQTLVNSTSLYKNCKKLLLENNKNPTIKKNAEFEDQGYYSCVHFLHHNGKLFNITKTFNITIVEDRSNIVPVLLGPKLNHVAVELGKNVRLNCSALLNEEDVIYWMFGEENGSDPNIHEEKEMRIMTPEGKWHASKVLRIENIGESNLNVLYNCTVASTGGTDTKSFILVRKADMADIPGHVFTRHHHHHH

T2: human IL-18R1 and IL-18RAP on IL-18 Reporter HEK 293 Cells (human, UniProt Q13478 19-541; O95256 20-599)
T2 sequence (looked up) 1: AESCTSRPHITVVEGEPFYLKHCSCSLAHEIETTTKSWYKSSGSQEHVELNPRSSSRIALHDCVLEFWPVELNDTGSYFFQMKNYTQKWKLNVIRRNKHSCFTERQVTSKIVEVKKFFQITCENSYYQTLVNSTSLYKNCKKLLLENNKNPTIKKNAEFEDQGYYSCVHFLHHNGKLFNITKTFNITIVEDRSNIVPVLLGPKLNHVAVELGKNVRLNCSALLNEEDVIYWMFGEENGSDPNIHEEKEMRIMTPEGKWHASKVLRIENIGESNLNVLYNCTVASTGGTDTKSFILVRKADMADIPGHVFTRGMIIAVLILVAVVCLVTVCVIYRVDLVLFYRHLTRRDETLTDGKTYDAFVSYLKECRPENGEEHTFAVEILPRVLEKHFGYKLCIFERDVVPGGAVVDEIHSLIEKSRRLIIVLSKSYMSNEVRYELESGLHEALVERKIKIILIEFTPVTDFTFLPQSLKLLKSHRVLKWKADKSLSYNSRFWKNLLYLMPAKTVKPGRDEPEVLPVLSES
T2 sequence (looked up) 2: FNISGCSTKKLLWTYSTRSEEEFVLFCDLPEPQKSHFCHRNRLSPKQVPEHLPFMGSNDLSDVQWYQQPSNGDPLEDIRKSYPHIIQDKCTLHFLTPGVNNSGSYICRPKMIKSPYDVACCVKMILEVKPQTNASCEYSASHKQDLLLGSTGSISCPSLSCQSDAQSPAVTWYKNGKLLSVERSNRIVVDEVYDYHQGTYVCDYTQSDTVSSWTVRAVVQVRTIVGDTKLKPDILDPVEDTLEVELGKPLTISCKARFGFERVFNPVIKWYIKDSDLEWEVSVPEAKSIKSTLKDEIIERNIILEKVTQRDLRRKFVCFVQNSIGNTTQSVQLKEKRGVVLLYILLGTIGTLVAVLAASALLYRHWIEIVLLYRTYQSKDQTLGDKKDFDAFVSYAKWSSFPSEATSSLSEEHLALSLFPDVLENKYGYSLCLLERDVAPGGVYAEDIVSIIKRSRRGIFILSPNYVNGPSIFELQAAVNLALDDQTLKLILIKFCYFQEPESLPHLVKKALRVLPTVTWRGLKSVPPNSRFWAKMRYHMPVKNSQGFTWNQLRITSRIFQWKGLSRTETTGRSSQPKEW

B1: R1-F9 (VHH)
VHH: QVQLQESGGGSVQAGETLRLSCTASGFTVHDMGWYRQAPGNECELVSTISSDGSTYYADSVKGRFTISQDNAKNTVYLQMNSLKPEDTAVYYCAADHFTGLQLAECKADFGYWGQGTQVTVSS
B2: R1-E12 (VHH)
VHH: QVQLQESGGGSVQAGGSLRLSCVASGTTMSMNYMAWFRQAPGKEREGVASIFRSTHYADSVKGRFTIAEDSAKNTVYLQMNSLKPEDTAVYYCAAGRTKPYLTPLAESQYNYWGQGIQVTVSS
B3: R1-A12 (VHH)
VHH: QVQLQESGGGPVQAGGSLRLSCSASTTAYDNACMGWFRQAPGKEREGVASIHLRDRTYYADSVKGRFTLSRDGASKTLYLQMNSLKPEDSGTYYCASSNICNGLNLQGNTYWGQGTQVTVSS
B4: R1-C7 (VHH)
VHH: QVQLQESGGGPVQAEGSLRLSCTASGNLYRDPCMGWFRQAPGKDREGVAAMNTGADSTFYARSVKGRFTISHDNAKNTLYLQMNSVKPEDTAMYYCAASRYCTERTWTWRYDYDYWGQGTQVTVSS
B5: R1-C10 (VHH)
VHH: QVQLQESGGGSVQAGETLRLSCTASGSTFDEYDMGWYRQAPGNKCELVSTISTIDGSTYYADSVKGRFTISQDNTKNTVYLQMNSLKPEDTGVYYCEADDRGTWDRGGCWGQGTQVTVSS
B6: Wio-02-09 (R1-C10-GGGGS-Rap-F11) (bispecific antibody)
chain: QVQLQESGGGSVQAGETLRLSCTASGSTFDEYDMGWYRQAPGNKCELVSTISTIDGSTYYADSVKGRFTISQDNTKNTVYLQMNSLKPEDTGVYYCEADDRGTWDRGGCWGQGTQVTVSSGGGGSQVQLQESGGGSVQPGGSLRLSCAASGFTYIPAYMGWFRQAPGKERERVASIKTDGSTTYADSVNGRFTIAQDTAKNTLYLQMDSLKPEDTAMYYCAAYQFGAFRVWGQGTQVTVSS
B7: Wio-02-03 (R1-C7-GGGGS-Rap-F11) (bispecific antibody)
chain: QVQLQESGGGPVQAEGSLRLSCTASGNLYRDPCMGWFRQAPGKDREGVAAMNTGADSTFYARSVKGRFTISHDNAKNTLYLQMNSVKPEDTAMYYCAASRYCTERTWTWRYDYDYWGQGTQVTVSSGSQVQLQESGGGSVQPGGSLRLSCAASGFTYIPAYMGWFRQAPGKERERVASIKTDGSTTYADSVNGRFTIAQDTAKNTLYLQMDSLKPEDTAMYYCAAYQFGAFRVWGQGTQVTVSS
B8: Wio-02-05 (R1-C7-GGGGS-Rap-C10) (bispecific antibody)
chain: QVQLQESGGGPVQAEGSLRLSCTASGNLYRDPCMGWFRQAPGKDREGVAAMNTGADSTFYARSVKGRFTISHDNAKNTLYLQMNSVKPEDTAMYYCAASRYCTERTWTWRYDYDYWGQGTQVTVSSGGGGSQVQLQESGGGSVQPGGSLRLSCAASGFTYIPAYMGWFRQAPGKERERVASISSTDGSTTYADSVKGRFTVSQDTAKNTLYLQMNSLKPEDTAMYYCAAYQFGAFRVWGQGTQVTVSS
B9: Wio-02-29 (Rap-A10-GGGGS-R1-A12) (bispecific antibody)
chain: QVQLQESGGGLVQAGGSLKLSCAASGYTYGPYCMGWFRQFPGKEREGVAAVGGDGRTWYGNSVKGRFTISQDNAKKTLYLQINALKPEDTAMYYCAADFDRTVCSDDIYDYTYRGQGTQVTVSSGGGGSQVQLQESGGGPVQAGGSLRLSCSASTTAYDNACMGWFRQAPGKEREGVASIHLRDRTYYADSVKGRFTLSRDGASKTLYLQMNSLKPEDSGTYYCASSNICNGLNLQGNTYWGQGTQVTVSS
B10: Wio-02-11 (R1-C10-GGGGS-Rap-C10) (bispecific antibody)
chain: QVQLQESGGGSVQAGETLRLSCTASGSTFDEYDMGWYRQAPGNKCELVSTISTIDGSTYYADSVKGRFTISQDNTKNTVYLQMNSLKPEDTGVYYCEADDRGTWDRGGCWGQGTQVTVSSGGGGSQVQLQESGGGSVQPGGSLRLSCAASGFTYIPAYMGWFRQAPGKERERVASISSTDGSTTYADSVKGRFTVSQDTAKNTLYLQMNSLKPEDTAMYYCAAYQFGAFRVWGQGTQVTVSS
B11: Wio-02-31 (Rap-C10-GGGGS-R1-F9) (bispecific antibody)
chain: QVQLQESGGGSVQPGGSLRLSCAASGFTYIPAYMGWFRQAPGKERERVASISSTDGSTTYADSVKGRFTVSQDTAKNTLYLQMNSLKPEDTAMYYCAAYQFGAFRVWGQGTQVTVSSGGGGSQVQLQESGGGSVQAGETLRLSCTASGFTVHDMGWYRQAPGNECELVSTISSDGSTYYADSVKGRFTISQDNAKNTVYLQMNSLKPEDTAVYYCAADHFTGLQLAECKADFGYWGQGTQVTVSS
B12: Wio-02-44 (Rap-A10-GGGGS-R1-E12) (bispecific antibody)
chain: QVQLQESGGGLVQAGGSLKLSCAASGYTYGPYCMGWFRQFPGKEREGVAAVGGDGRTWYGNSVKGRFTISQDNAKKTLYLQINALKPEDTAMYYCAADFDRTVCSDDIYDYTYRGQGTQVTVSSGGGGSQVQLQESGGGSVQAGGSLRLSCVASGTTMSMNYMAWFRQAPGKEREGVASIFRSTHYADSVKGRFTIAEDSAKNTVYLQMNSLKPEDTAVYYCAAGRTKPYLTPLAESQYNYWGQGIQVTVSS
B13: Wio-02-30 (Rap-C10-GGGGS-R1-C10) (bispecific antibody)
chain: QVQLQESGGGSVQPGGSLRLSCAASGFTYIPAYMGWFRQAPGKERERVASISSTDGSTTYADSVKGRFTVSQDTAKNTLYLQMNSLKPEDTAMYYCAAYQFGAFRVWGQGTQVTVSSGGGGSQVQLQESGGGSVQAGETLRLSCTASGSTFDEYDMGWYRQAPGNKCELVSTISTIDGSTYYADSVKGRFTISQDNTKNTVYLQMNSLKPEDTGVYYCEADDRGTWDRGGCWGQGTQVTVSS
B14: Wio-02-23 (R1-F9-GGGGS-Rap-C10) (bispecific antibody)
chain: QVQLQESGGGSVQAGETLRLSCTASGFTVHDMGWYRQAPGNECELVSTISSDGSTYYADSVKGRFTISQDNAKNTVYLQMNSLKPEDTAVYYCAADHFTGLQLAECKADFGYWGQGTQVTVSSGGGGSQVQLQESGGGSVQPGGSLRLSCAASGFTYIPAYMGWFRQAPGKERERVASISSTDGSTTYADSVKGRFTVSQDTAKNTLYLQMNSLKPEDTAMYYCAAYQFGAFRVWGQGTQVTVSS

Several values for one entry are separate records, joined by “and”; a condition that tells them apart may be missing. Equal entries are not always repeated.

The first test concerns the target T1, human IL-18R1 ECD-His (human). The test is described as follows: phage ELISA, 4-fold dilution. For orientation: An ELISA detects its analyte on a solid surface through an enzyme-linked reagent.
As for B1, the ELISA OD turned out to be 2.04.

Molecule B2 came in with an ELISA OD of 2.76.

B3: the ELISA OD was 2.71.

B4 returned an ELISA OD of 1.

B5 displayed an ELISA OD of 1.33.

A further test has as its target T2, human IL-18R1 and IL-18RAP on IL-18 …. Kind of test: cell-based or functional assay.
Consider B6, for which the “SEAP reporter OD, supernatant 5X” value worked out at 1.91 and the “SEAP reporter OD, supernatant 25X” value came to 1.87.

For the molecule B7, the “SEAP reporter OD, supernatant 5X” value stood at 1.39 and the “SEAP reporter OD, supernatant 25X” value came to 0.608.

Consider B8, for which the “SEAP reporter OD, supernatant 5X” value was 1.97 and the “SEAP reporter OD, supernatant 25X” value was 1.86.

For B9, the “SEAP reporter OD, supernatant 5X” value was 1.51 and the “SEAP reporter OD, supernatant 25X” value worked out at 1.23.

Take B10: the “SEAP reporter OD, supernatant 5X” value turned out to be 2.85 and the “SEAP reporter OD, supernatant 25X” value was found to be 2.17.

B11: the “SEAP reporter OD, supernatant 5X” value was 1.66 and the “SEAP reporter OD, supernatant 25X” value worked out at 1.77.

Turning to B12, the “SEAP reporter OD, supernatant 5X” value was 1.31 and the “SEAP reporter OD, supernatant 25X” value was 1.37.

As for B13, the “SEAP reporter OD, supernatant 5X” value came to 1.59 and the “SEAP reporter OD, supernatant 25X” value came out at 1.18.

Consider B14, for which the “SEAP reporter OD, supernatant 5X” value was determined as 1.78 and the “SEAP reporter OD, supernatant 25X” value stood at 1.9.

The target of the next test is T1, human IL-18R1 ECD-His (human). The test is described as follows: sandwich ELISA, IL-18RAP ECD-hFc detection.
In the case of B6, the ELISA OD is 1.81 and 1.82.

As to B7, the ELISA OD is 1.74 and 1.85.

Regarding B8, the ELISA OD was 1.88 and 1.9.

As to B9, the ELISA OD was 2.05 and 2.04.

With B10, the ELISA OD is 2.03 and 2.15.

On to B11, for which the ELISA OD is 2.17 and 2.18.

Take B12: the ELISA OD is 1.87 and 1.94.

On to B13, for which the ELISA OD was 2.16 and 2.29.

In the case of B14, the ELISA OD was 1.73 and 1.83.

The next test shares this target. Kind of test: phage ELISA, 16-fold dilution.
Regarding B1, the ELISA OD was 1.63.

B2 gave an ELISA OD of 2.71.

B3: the ELISA OD stood at 2.64.

B4: the ELISA OD was 0.819.

B5: the ELISA OD turned out to be 0.977.
